Results: publication PMC4525183, “Snf1/AMP-activated protein kinase activates Arf3p to promote invasive yeast growth via a non-canonical GEF domain” (Nature Communications, 2015)

T1: GST-Snf1-C (a.a. 311–633) (S. cerevisiae, UniProt P06782 311-633)
T1 construct: Snf1p, S. cerevisiae, C-terminal regulatory domain, a.a; 311–633; Vector pGEX4T-1; also called C-terminal regulatory domain of Snf1p; source: E. coli BL21 (DE3), purified (glutathione-Sepharose 4B)
T1 sequence (looked up): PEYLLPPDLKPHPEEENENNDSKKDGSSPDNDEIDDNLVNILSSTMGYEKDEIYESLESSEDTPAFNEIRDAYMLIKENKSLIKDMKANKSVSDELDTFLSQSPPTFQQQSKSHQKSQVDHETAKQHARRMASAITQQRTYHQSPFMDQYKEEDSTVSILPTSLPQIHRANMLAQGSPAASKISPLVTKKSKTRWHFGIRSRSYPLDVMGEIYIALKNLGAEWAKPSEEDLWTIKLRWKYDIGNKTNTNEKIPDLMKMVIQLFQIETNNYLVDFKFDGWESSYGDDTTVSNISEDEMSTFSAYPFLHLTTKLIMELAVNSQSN

B1: His-Arf3^T31N (natural protein, S. cerevisiae, UniProt P40994 1-183, looked up)
chain: MGNSISKVLGKLFGSKEMKILMLGLDKAGKNTILYKLKLNKIKTSTPTVGFNVETVTYKNVKFNMWDVGGQQRLRPLWRHYFPATTALIFVIDSSARNRMEEAKEELYSIIGEKEMENVVLLVWANKQDLKDAMKPQEVSDFLELEKNLKNQPWCVIGSNALSGQGLVEGLSWISNNTNVPKK
notes: Arf3p, S. cerevisiae; T31N; plasmid pET32a-ARF3 (T31N); pET32a usually adds thioredoxin, His and S tags before the insert

Assays:
His-Arf3^T31N = molecular target: B1; experiment: pull-down; GST fusions on glutathione-Sepharose 4B beads, His-tagged protein in solution (His-Arf3 loaded with GDP or GTPγS); 50 mM Tris-HCl pH 7.5, 150 mM NaCl, 1% Triton X-100, 1 mM DTT, 10 mM MgCl2; 1 h, 4 °C; anti-His blot; settings: both partners purified
[1] = molecular target: T1, GST-Snf1-C (a.a. 311–633); experiment: as above; settings: both partners purified

Binder	binding result (His-Arf3^T31N)	binding result [1]
GST-Snf1-C1 (a.a. 392–518) (domain or fragment, S. cerevisiae, UniProt P06782 392-518, looked up, Snf1p, S. cerevisiae, a.a; Vector pGEX4T-1; source: E. coli BL21 (DE3), purified (glutathione-Sepharose 4B)) LIKDMKANKSVSDELDTFLSQSPPTFQQQSKSHQKSQVDHETAKQHARRMASAITQQRTYHQSPFMDQYKEEDSTVSILPTSLPQIHRANMLAQGSPAASKISPLVTKKSKTRWHFGIRSRSYPLDV	binds	–
B1	–	binds
